{"source": "the RNAGym collection of RNA variant scans (doi:10.7554/elife.80360)", "parents": {"B1": {"name": "HDV Ribozyme (parent)", "chain": "GGCCGGCAUGGUCCCAGCCUCCUCGCUGGCGCCGGCUGGGCAACAUUCCGAGGGGACCGUCCCCUCGGUAAUGGCGAAUGGGACCCA"}}}
{"variants_of": "B1", "assay": "self-cleavage, relative activity (ratio to wild type); higher = more cleavage; co-transcriptional"}
{"variant": "GGCCGGCAUGGUCCCAGCCUCCUCGCUGACGCCGGCUGGGCAACAUUCCGAGGGCACCGUCCCCUCGGUAAUGGCGAAUGGGACCCA", "self-cleavage": 0.0563}
{"variant": "GGCCGGCAUGGUCCCAGCCUCCUCGCUGACGCCGGCUGGGCAACAUUCCGAGGGGACCGUCCCCUCGGUAAUGGCGAAUGGCACCCA", "self-cleavage": 0.0627}
{"variant": "GGCCGGCAUGGUCCCAGCCUCCUCGCUGACGCCGGCUGGGCAACAUUCCGAGGGGACCGUCCCCUCGGUAAUGGCGAAUGGGACCAA", "self-cleavage": 0.155}
{"variant": "GGCCGGCAUGGUCCCAGCCUCCUCGCUGACGCCGGCUGGGCAACAUUCCGAGGGGUCCGUCCCCUCGGUAAUGGCGAAUGGGACCCA", "self-cleavage": 0.111}
{"variant": "GGCCGGCAUGGUCCCAGCCUCCUCGCUGACGCCGGCUGGCCAACAUUCCGAGGGGACCGUCCCCUCGGUAAUGGCGAAUGGGACCCA", "self-cleavage": 0.0656}
{"variant": "GGCCGGCAUGGUCCCAGCCUCCUCGCUGACGCCGGCUGGUCAACAUUCCGAGGGGACCGUCCCCUCGGUAAUGGCGAAUGGGACCCA", "self-cleavage": 0.0831}
{"variant": "GGCCGGCAUGGUCCCAGCCUCCUCGCUGACGCCGGCUGGGCAACAUUCCGAGGGGACCGUCCCCUCGGUAAUGGCGAAUGGGACCCC", "self-cleavage": 0.0602}
{"variant": "GGCCGGCAUGGUCCCAGCCUCCUCGCUGACGCCGGCUGGGCAACAUUCCGAGGGGACCGUCCCCUCGGUAAUGGCGAAUGGGACCCG", "self-cleavage": 0.135}
{"variant": "GGCCGGCAUGGUCCCAGCCUCCUCGCUGACGCCGGCUGGGCAACAUUCCGAGGGGACCGUCCCCUCGGUAAUGGCGAAUGGGACCCU", "self-cleavage": 0.155}
{"variant": "GGCCGGCAUGGUCCCAGCCUCCUCGCUGACGCCGGCUGGGCAACAUUCCGAGGGGACCGUCCCCUGGGUAAUGGCGAAUGGGACCCA", "self-cleavage": 0.204}
{"variant": "GGCCGGCAUGGUCCCAGCCUCCUCGCUGACGCCGGCUGGGCAACAUUCCGAGGGGACCGUCCCCUCGGUAAUGACGAAUGGGACCCA", "self-cleavage": 0.0773}
{"variant": "GGCCGGCAUGGUCCCAGCCUCCUCGCUGACGCCGGCUGGGCAACAUUCCGAGGGGACCGUCCCCUCGGUAAUGGCGAACGGGACCCA", "self-cleavage": 0.113}
{"variant": "GGCCGGCAUGGUCCCAGCCUCCUCGCUGACGCCGGCUGGGCAACAUUCCGAGGGGACCGUCCCCUCGGUAAUGGCGAAAGGGACCCA", "self-cleavage": 0.166}
{"variant": "GGCCGGCAUGGUCCCAGCCUCCUCGCUGACGCUGGCUGGGCAACAUUCCGAGGGGACCGUCCCCUCGGUAAUGGCGAAUGGGACCCA", "self-cleavage": 0.111}
{"variant": "GGCCGGCAUGGUCCCAGCCUCCUCGCUGACGCGGGCUGGGCAACAUUCCGAGGGGACCGUCCCCUCGGUAAUGGCGAAUGGGACCCA", "self-cleavage": 0.0346}
{"variant": "GGCCGGCAUGGUCCCAGCCUCCUCGCUGACGCCGGCUGGGCAACAUUCCGAGGGGACCGUCCCCUCGGUAAGGGCGAAUGGGACCCA", "self-cleavage": 0.0923}
{"variant": "GGCCGGCAUGGUCCCAGCCUCCUCGCUGACGCCGGCUGGGCAACAUUCCGAGGGGACCGUCCCCUCGGUAACGGCGAAUGGGACCCA", "self-cleavage": 0.0852}
{"variant": "GGCCGGCAUGGUCCCAGCCUCCUCGCUUGCGCCGGCUGGGCAACAUCCCGAGGGGACCGUCCCCUCGGUAAUGGCGAAUGGGACCCA", "self-cleavage": 0.297}
{"variant": "GGCCGGCAUGGUCCCAGCCUCCUCGCUGACGCCGGCUGGGCACCAUUCCGAGGGGACCGUCCCCUCGGUAAUGGCGAAUGGGACCCA", "self-cleavage": 0.0978}
{"variant": "GGCCGGCAUGGUCCCAGCCUCCUCGCUGACGCCGGCUGGGCAACAUUCCGAGGGGACCGUCGCCUCGGUAAUGGCGAAUGGGACCCA", "self-cleavage": 0.169}
{"variant": "GGCCGGCAUGGUCCCAGCCUCCUCGCUGACGCCGACUGGGCAACAUUCCGAGGGGACCGUCCCCUCGGUAAUGGCGAAUGGGACCCA", "self-cleavage": 0.0923}
{"variant": "GGCCGGCAUGGUCCCAGCCUCCUCGCUGACGCCGGCUGGGCAACAUUCCGAGGGGACCGUCCCCUCGGUAAUGGCGAAUGGGAGCCA", "self-cleavage": 0.102}
{"variant": "GGCCGGCAUGGUCCCAGCCUCCUCGCUGACGCCGGCUGGGCAACAUUCCGAGGGGACCGUCCCCUCGGUAAUGGCGAAUGGGACACA", "self-cleavage": 0.17}
{"variant": "GGCCGGCAUGGUCCCAGCCUCCUCGCUGACGCCGGCUGGGCAACAUUCCGAGGGGACCGUCCCCUCGGUAAUGGAGAAUGGGACCCA", "self-cleavage": 0.0852}
{"variant": "GGCCGGCAUGGUCCCAGCCUCCUCGCUGACGCCGGCUGGGCAACAUUCCGCGGGGACCGUCCCCUCGGUAAUGGCGAAUGGGACCCA", "self-cleavage": 0.121}
{"variant": "GGCCGGCAUGGUCCCAGCCUCCUCGCUGACGCCGGCUGGGCAACAUUCCGAGGGGACCGUCCCCUCGGUACUGGCGAAUGGGACCCA", "self-cleavage": 0.089}
{"variant": "GGCCGGCAUGGUCCCAGCCUCCUCGCUGCCGCCGGCUGGGCCACAUUCCGAGGGGACCGUCCCCUCGGUAAUGGCGAAUGGGACCCA", "self-cleavage": 0}
{"variant": "GGCCGGCAUGGUCCCAGCCUCCUCGCUUGCGCCGGCUGGGCAACAUUCCGAGGGGACCGUCCCCUCGGUAACGGCGAAUGGGACCCA", "self-cleavage": 0.0898}
{"variant": "GGCCGGCAUGGUCCCAGCCUCCUCGCUUGCGCCGGCUGGGCAACAUUCCGAGGGGACCGUCCCCUCGGUAAGGGCGAAUGGGACCCA", "self-cleavage": 0.0554}
{"variant": "GGCCGGCAUGGUCCCAGCCUCCUCGCUGACGCCGGCCGGGCAACAUUCCGAGGGGACCGUCCCCUCGGUAAUGGCGAAUGGGACCCA", "self-cleavage": 0.17}
{"variant": "GGCCGGCAUGGUCCCAGCCUCCUCGCUUGCGCCGGCUGGGCAACAUUCCGAGGGGACCGUCCCCUCUGUAAUGGCGAAUGGGACCCA", "self-cleavage": 0.137}
{"variant": "GGCCGGCAUGGUCCCAGCCUCCUCGCUUGCGCCGGCUGGGCAACAUUCCGAGGGGACCGUCCCCUCGGUAAUGGCGAAUGGCACCCA", "self-cleavage": 0.0272}
